The values below come from paper PMC9464890, “Exosite binding modulates the specificity of the immunomodulatory enzyme ScpA, a C5a inactivating bacterial protease” (Computational and Structural Biotechnology Journal, 2022).

Positions count from the first letter of the chain named.

For one experiment, the target named is T1, ScpA_(S512A,D889A) (Streptococcus pyogenes, UniProt P15926 31-1032, S512A | D889A).
T1 construct: Made by QuikChange II from pGEX ScpA(31-1032); also called D889A_(S512A); source: details in Supplemental Information SI1 and SI2
T1 sequence (looked up): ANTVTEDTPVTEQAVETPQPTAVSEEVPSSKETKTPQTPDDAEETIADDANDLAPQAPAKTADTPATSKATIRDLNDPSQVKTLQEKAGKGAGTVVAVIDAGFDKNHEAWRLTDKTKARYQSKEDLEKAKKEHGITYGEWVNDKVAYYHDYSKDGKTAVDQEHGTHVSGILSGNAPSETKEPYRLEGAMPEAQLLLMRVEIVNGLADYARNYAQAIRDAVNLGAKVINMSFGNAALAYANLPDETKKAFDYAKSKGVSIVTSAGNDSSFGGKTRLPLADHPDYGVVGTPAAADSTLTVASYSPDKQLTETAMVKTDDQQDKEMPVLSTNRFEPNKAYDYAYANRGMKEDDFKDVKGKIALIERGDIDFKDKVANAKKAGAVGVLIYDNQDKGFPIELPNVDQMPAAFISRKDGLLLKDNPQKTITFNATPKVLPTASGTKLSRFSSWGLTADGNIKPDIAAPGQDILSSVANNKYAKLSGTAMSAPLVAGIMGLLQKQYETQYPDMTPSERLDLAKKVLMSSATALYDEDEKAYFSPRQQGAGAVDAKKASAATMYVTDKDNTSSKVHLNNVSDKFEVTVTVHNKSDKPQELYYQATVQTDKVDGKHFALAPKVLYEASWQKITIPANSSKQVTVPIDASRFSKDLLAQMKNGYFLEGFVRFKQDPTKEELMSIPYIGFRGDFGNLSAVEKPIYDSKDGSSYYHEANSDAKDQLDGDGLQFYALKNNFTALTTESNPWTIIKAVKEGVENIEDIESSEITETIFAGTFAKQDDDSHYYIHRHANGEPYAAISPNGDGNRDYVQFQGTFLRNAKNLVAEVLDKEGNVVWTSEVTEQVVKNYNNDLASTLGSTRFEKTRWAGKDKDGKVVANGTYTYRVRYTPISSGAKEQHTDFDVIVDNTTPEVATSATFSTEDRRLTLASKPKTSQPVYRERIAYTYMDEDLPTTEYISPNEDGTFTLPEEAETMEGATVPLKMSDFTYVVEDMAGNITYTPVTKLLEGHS
In words: SPR; BIAcore X100, NTA sensor chip with about 20-25 RU of immobilised His-tagged C5a form (ligand), ScpA form flowed as ligate at 30 uL/min, 25 °C, 10 mM Hepes-KOH pH 7.4, 150 mM NaCl, 0.005% Tween 20, 50 uM EDTA; global fit, 1:1 Langmuir model with drifting baseline; triplicate. Particulars: both partners purified.

In another experiment the target is T2, ScpA_(S512A,E864A) (Streptococcus pyogenes, UniProt P15926 31-1032, S512A | E864A).
T2 construct: Made by QuikChange II from pGEX ScpA(31-1032); also called E864A_(S512A); source: details in Supplemental Information SI1 and SI2
T2 sequence (looked up): T1 sequence (looked up) with E834A, A859D
The experiment is described as above. The conditions noted are these: both partners purified.

B1: Recombinant human C5a (rhC5a) (natural protein, UniProt P01031 678-751, looked up)
chain: TLQKKIEEIAAKYKHSVVKKCCYDGACVNNDETCEQRAARISLGPRCIKAFTECCVVASQLRANISHKDMQLGR
notes: human complement C5a anaphylatoxin, residues 1-74 (core 1-67 and tail 68-74); also called full length rhC5a; substrate; not shown: His6, N-terminal, kept
On to B1, for which, in the experiment with ScpA_(S512A,D889A), the Kd – broadly, a measure of binding affinity in units of concentration – came to 27 nM; the off-rate (koff) (in general, a measure of how fast the partners let go of each other) amounted to 0.007 s⁻¹; the association rate constant (kon) (as a rule, the second-order rate constant of association) stood at 263000 M⁻¹ s⁻¹. In the experiment with ScpA_(S512A,E864A), this molecule displayed a Kd of 25 nM, an off-rate (koff) of 0.0064 s⁻¹ and an association rate constant (kon) of 260000 M⁻¹ s⁻¹.
